In paper PMC4587294 (Nanomedicine, 2015):
Where “and” joins values, the source holds several entries; their conditions need not be identical. Identical values can stand only once.

Tests used:
STEM mass measurement = target: the molecule itself; experiment: STEM mass measurement
AUC = target: the molecule itself; experiment: AUC

B1: T2i88-8-pf self-assembling protein nanoparticle (SAPN) chain (designed binder)
chain: MGHHHHHHASWKWDGGLVPRGSWQTWNAKWDQWSNDWNAWRSDWQAWKDDWAYWTLTWKYGELYSKLAELERRLEELAKFVAAWTLKAAAVDLELAALRRRLEELARGGSGANANPNANPNANPNANP
- stoichiometry N (STEM mass measurement): 195 peptide chains per nanoparticle and ~180 peptide chains per particle
- stoichiometry N (AUC): ~180 chains per nanoparticle
